Data taken from PMC9305820.

How the values were obtained:
[1] = target: Transforming growth factor-β1 (TGF-β1) dimer (UniProt P01137); test: negative-stain electron microscopy
[2] = target: Transforming growth factor-β1 (TGF-β1) dimer (UniProt P01137); test: dynamic light scattering
[3] = target: Fluorescently labeled TGF-β1; test: MST

Chain of UniProt P01137 (P01137 279-390): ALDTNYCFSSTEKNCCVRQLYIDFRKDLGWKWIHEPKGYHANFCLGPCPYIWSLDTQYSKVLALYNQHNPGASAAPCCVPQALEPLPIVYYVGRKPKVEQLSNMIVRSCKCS

“Bintrafusp alfa (from UniProt P37173 23-166)” was tested, and the stoichiometry N (TGF-β1 dimer per BA) [1] was 1, the stoichiometry N (BA per TGF-β1 dimer) [2] was 1 and the Kd [3] was 0.055 nM.
